Assay results reported in the RNAGym collection of RNA variant scans (doi:10.7554/elife.80360).

B1: HDV Ribozyme (parent)
chain: GGCCGGCAUGGUCCCAGCCUCCUCGCUGGCGCCGGCUGGGCAACAUUCCGAGGGGACCGUCCCCUCGGUAAUGGCGAAUGGGACCCA

Variants of: B1
Assay: self-cleavage, relative activity (ratio to wild type); higher = more cleavage; co-transcriptional

First: GGCCGGCAUGGUCCCAGCCUCCUCGCUGACGCCGGCUGGGCAACAUUCCGAGGGGACCGUCCCCUCGGUAAUGGCGAAUGUGACCCA [G29A G81U]
Second: GGCCGGCAUGGUCCCAGCCUCCUCGCUGCCGCCGGCUGGGCAACAUUCCGGGGGGACCGUCCCCUCGGUAAUGGCGAAUGGGACCCA [G29C A51G]
The self-cleavage of the first is higher: 0.125 for the first, 0 for the second.

Going from GGCCGGCAUGGUCCCAGCCUCCUCGCUGACGCCGGCUGGGCAACAUUCCGAGGGGACCGCCCCCUCGGUAAUGGCGAAUGGGACCCA [G29A U60C] to GGCCGGCAUGGUCCCAGCCUCCUCGCUGACGCCGGCUGGGCAACAUUCCGAGGGGACCGGCCCCUCGGUAAUGGCGAAUGGGACCCA [G29A U60G], the self-cleavage falls from 0.0997 to 0.0923.

Going from GGCCGGCAUGGUCCCAGCCUCCUCGCUGACGCCGGCUGGGCAACAUUCCGAGGGGACCGUCCCCACGGUAAUGGCGAAUGGGACCCA [G29A U65A] to GGCCGGCAUGGUCCCAGCCUCCUCGCUGACGCCGGCUGGGCAACAUUCCGAGGGGACCGUCCCCCCGGUAAUGGCGAAUGGGACCCA [G29A U65C], the self-cleavage rises from 0.0627 to 0.17.

Going from GGCCGGCAUGGUCCCAGCCUCCUCGCUGCCGCCGGCUGGGCAUCAUUCCGAGGGGACCGUCCCCUCGGUAAUGGCGAAUGGGACCCA [G29C A43U] to GGCCGGCAUGGUCCCAGCCUCCUCGCUGCCGCCGGCUGGGCAACGUUCCGAGGGGACCGUCCCCUCGGUAAUGGCGAAUGGGACCCA [G29C A45G], the self-cleavage falls from 0.0519 to 0.

Compared with GGCCGGCAUGGUCCCAGCCUCCUCGCUGCCGCCGGCUGGGCAACCUUCCGAGGGGACCGUCCCCUCGGUAAUGGCGAAUGGGACCCA [G29C A45C], GGCCGGCAUGGUCCCAGCCUCCUCGCUGACGCCGGCUGGGCAACAUUCCGAGGGGACCGUCCCCUCGGUAAUGGCCAAUGGGACCCA [G29A G76C] is higher in self-cleavage: 0.111 for the first, 0.256 for the second.

First: GGCCGGCAUGGUCCCAGCCUCCUCGCUGACGCCGGCUGGGCAACAUUCCGAGGGUACCGUCCCCUCGGUAAUGGCGAAUGGGACCCA [G29A G55U]
Second: GGCCGGCAUGGUCCCAGCCUCCUCGCUGACGCCGGCUGGGCAACAUUCCGAGGGAACCGUCCCCUCGGUAAUGGCGAAUGGGACCCA [G29A G55A]
The self-cleavage of the first is lower: 0.168 for the first, 0.208 for the second.

Compared with GGCCGGCAUGGUCCCAGCCUCCUCGCUGACGCCGGCUGGGCAACACUCCGAGGGGACCGUCCCCUCGGUAAUGGCGAAUGGGACCCA [G29A U46C], GGCCGGCAUGGUCCCAGCCUCCUCGCUGACGCCGGCUGGGCAACAGUCCGAGGGGACCGUCCCCUCGGUAAUGGCGAAUGGGACCCA [G29A U46G] is higher in self-cleavage: 0.138 for the first, 0.166 for the second.

Going from GGCCGGCAUGGUCCCAGCCUCCUCGCUGCCGCCGGCUGGGCAACAUUCCGAGGGGCCCGUCCCCUCGGUAAUGGCGAAUGGGACCCA [G29C A56C] to GGCCGGCAUGGUCCCAGCCUCCUCGCUGACGCCGGCUGGGCAACAUUCCGAGGGGACCGUCCCCUCGGUAAUGGCGAAUAGGACCCA [G29A G80A], the self-cleavage falls from 0.237 to 0.163.

Going from GGCCGGCAUGGUCCCAGCCUCCUCGCUGACGCCGGCUGGGCAACAUUCCGAGGGGACCGUCCCCUCGGUAAUGGCGAAUCGGACCCA [G29A G80C] to GGCCGGCAUGGUCCCAGCCUCCUCGCUGACGCCGGCUGGGCAACAUACCGAGGGGACCGUCCCCUCGGUAAUGGCGAAUGGGACCCA [G29A U47A], the self-cleavage rises from 0.145 to 0.148.

Going from GGCCGGCAUGGUCCCAGCCUCCUCGCUGACGCCGGCAGGGCAACAUUCCGAGGGGACCGUCCCCUCGGUAAUGGCGAAUGGGACCCA [G29A U37A] to GGCCGGCAUGGUCCCAGCCUCCUCGCUGACGCCGGCUGGGCAACAUUCCGAGGGGACCGUCCCCUCUGUAAUGGCGAAUGGGACCCA [G29A G67U], the self-cleavage rises from 0.136 to 0.231.

Compared with GGCCGGCAUGGUCCCAGCCUCCUCGCUGACGCCGGCUGGGCAACAUUCCGAGGGGACCGUCCCCUCAGUAAUGGCGAAUGGGACCCA [G29A G67A], GGCCGGCAUGGUCCCAGCCUCCUCGCUGACGCCGGCUGGGCAACAUUCCGAGGGGACCGUCCCCUCCGUAAUGGCGAAUGGGACCCA [G29A G67C] is higher in self-cleavage: 0.0791 for the first, 0.237 for the second.

Compared with GGCCGGCAUGGUCCCAGCCUCCUCGCUGACGCCGGCUGGGCAACAUUCCGAGGGGACCGUCCCCUCGGUAAUGGCGAAUGGUACCCA [G29A G82U], GGCCGGCAUGGUCCCAGCCUCCUCGCUGACGCCGGCUGGGCAACAUUCCGAGGGGACCGUCCCCUCGCUAAUGGCGAAUGGGACCCA [G29A G68C] is higher in self-cleavage: 0.0911 for the first, 0.111 for the second.

Going from GGCCGGCAUGGUCCCAGCCUCCUCGCUGACGCCGGCUGGGCAACAUUCCGAGGGGACCGUCCCCUCGAUAAUGGCGAAUGGGACCCA [G29A G68A] to GGCCGGCAUGGUCCCAGCCUCCUCGCUGACGCCGGCUGGGCAACAUUCCGAGGGGACCGUCCCCUCGUUAAUGGCGAAUGGGACCCA [G29A G68U], the self-cleavage falls from 0.107 to 0.0841.

Compared with GGCCGGCAUGGUCCCAGCCUCCUCGCUGACGCCGGCUGGGCAACAUUCCGAGGGGACCGUCCCCUCGGUAAAGGCGAAUGGGACCCA [G29A U72A], GGCCGGCAUGGUCCCAGCCUCCUCGCUGACGCCGGCUGGGCAACAUUCCGAGGAGACCGUCCCCUCGGUAAUGGCGAAUGGGACCCA [G29A G54A] is lower in self-cleavage: 0.122 for the first, 0.0989 for the second.

First: GGCCGGCAUGGUCCCAGCCUCCUCGCUGACGCCGGCUGGGCAACAUUCCGAGGCGACCGUCCCCUCGGUAAUGGCGAAUGGGACCCA [G29A G54C]
Second: GGCCGGCAUGGUCCCAGCCUCCUCGCUGACGCCGGCUGGGCAACAUUCCGAGGGGACCGUCCCCUCGGUAAUGUCGAAUGGGACCCA [G29A G74U]
The self-cleavage of the first is higher: 0.113 for the first, 0.073 for the second.

First: GGCCGGCAUGGUCCCAGCCUCCUCGCUGCCGCCGGCUGGGCUACAUUCCGAGGGGACCGUCCCCUCGGUAAUGGCGAAUGGGACCCA [G29C A42U]
Second: GGCCGGCAUGGUCCCAGCCUCCUCGCUGCCGCCGGCUGGGCGACAUUCCGAGGGGACCGUCCCCUCGGUAAUGGCGAAUGGGACCCA [G29C A42G]
The self-cleavage of the first is higher: 0.0314 for the first, 0 for the second.
